The values that follow come from PMC3469841.

The target of assay [1] is Stefin B construct (C3S, with glutamate polymorph at position 31) (human) (UniProt P04080). In words: NMR (2D 1H15N HSQC amide peak intensities); apparent ratio of monomer to dimer from peaks of Q71, L73 and E76; pH 6.0, 0% TFE; 200 uM 15N protein (monomer equivalents), 100 mM NaCl, 25°C; dimer to monomers; the paper says the two species never reach equilibrium.
For assay [2] the target is unchanged. In words: NMR (2D 1H15N HSQC amide peak intensities); apparent ratio of monomer to dimer from peaks of Q71, L73 and E76; fibrillization conditions, pH 4.7 and 10% TFE, 15 mM sodium acetate, 25°C; dimer to monomers.
Assay [3] has as its target P79S stefin B variant (human) (UniProt P04080). In words: SEC; KW-803 column (Shodex), HPLC with UV detection; 15 mM sodium acetate, 150 mM NaCl, 1 mM NaN3, pH lowered to 4.7; tetramer to dimers and monomers.
The target is the same in assay [4]. In words: SEC; KW-803 column (Shodex), HPLC with UV detection; 50 mM sodium phosphate, 100 mM NaCl, pH 7, 1 mM NaN3. (In general: SEC sorts molecules by how far they enter the pores of the column.)

On to “Stefin B construct (C3S, with glutamate polymorph at position 31) (from UniProt P04080 4-98) (natural protein)”, for which the ratio of monomer to dimer (monomer:dimer) in assay [1] was 1; in assay [2], 2.
A word on the stoichiometry N: it is the number of molecules, sites or subunits per partner or assembly. Regarding “P79S stefin B variant (from UniProt P04080 1-98) (natural protein)”, the figures for the stoichiometry N in assay [3] and in assay [4] were 2 and 4, respectively.
